Experimental data published in patent publication US20200165312A1, “COSMETIC COMPOSITION FOR IMPROVING SKIN CONDITIONS COMPRISING FUSION PROTEIN INCLUDING SKIN PENETRATION ENHANCING PEPTIDE” (LG HOUSEHOLD & HEALTH CARE LTD., priority 2017, published 2020).

Tests used:
[1] = tested on: skin keratinocytes; assay: Keratinocyte growth (skin barrier strengthening), Cell Counter Kit-8; format: cell-based; conditions: for Production (%) (keratinocyte growth): 100 ng/mL T-KGF or KGF, one day, control = 100
Procedure: (§1) Specifically, skin keratinocytes were cultured in a 96-well plate for one day to obtain cultures at a density of 6,000 cells per well. The cultures were washed with PBS and cultured in a serum-free DMEM medium for one day. The cells were washed with PBS again and cultured in a serum-free DMEM medium supplemented with 100 ng/mL T-IGF-1 or IGF-1 for one day. The cultures were obtained therefrom and a difference between proliferated amounts of cells was quantitively analyzed using the Cell Counter Kit-8 (Dojindo). Here, skin keratinocytes cultured in a serum-free DMEM medium without T-IGF-1 or IGF-1 were used as a control (Table 14).
Specifically, skin keratinocytes were cultured in a 96-well plate for 24 hours to obtain cultures at a density of 6,000 cells per well.
as §1, with “The” for “Specifically, skin keratinocytes were cultured in a 96-well plate for one day to obtain cultures at a density of 6,000 cells per well. The”, “T-KGF” for “T-IGF-1”, “KGF” for “IGF-1”, “18).” for “14).”

[2] = Skin retentivity of growth factor fusion proteins (porcine skin disrupted, ELISA); format: in vitro ADME; conditions: for Remaining amount (%): skin after 16 hours penetration test; for skin retentivity higher than the unfused protein: summary of Tables 8, 13, 17, 21, 25
Procedure: (§2) Specifically, the porcine skin remained after the experiment of Example 3-2-4 was recovered, frozen in liquid nitrogen, and disrupted. An amount of PDGFa or T-PDGFa contained therein was quantitatively analyzed using the ELISA kit (R&D Systems). In addition, a relative amount of T-PDGFa to PDGFa was calculated as a remaining amount (Table 8).
Specifically, the porcine skin remained after the experiment of Example 3-3-4 was recovered, frozen in liquid nitrogen, and disrupted. An amount of VEGF or T-VEGF contained therein was quantitatively analyzed using the ELISA kit (R&D Systems).
as §2, with “3-4-4” for “3-2-4”, “IGF-1” for “PDGFa”, “T-IGF-1” for “T-PDGFa”, “17).” for “8).”
as §2, with “3-5-3” for “3-2-4”, “KGF” for “PDGFa”, “T-KGF” for “T-PDGFa”, “21).” for “8).”
as §2, with “3-6-3” for “3-2-4”, “Tβ4” for “PDGFa”, “T-Tβ4” for “T-PDGFa”, “25).” for “8).”

[3] = tested on: dermal fibroblasts; assay: Hyaluronic acid (HA) production in dermal fibroblasts (ELISA); format: cell-based, human; conditions: two days
Procedure: (§3) Specifically, dermal fibroblasts were inoculated onto a 24-well plate and cultured for 24 hours to obtain cultures having a saturation degree of 70 to 80%. The cultures were washed with PBS and cultured in a serum-free DMEM medium including 10 ng/mL T-PDGFa or PDGFa for two days. A supernatant was obtained therefrom and the amount of hyaluronic acid (HA) produced and released in the culture solution was quantitively analyzed using an ELISA kit (R&D Systems) (Table 5).
as §3, with “The cultures were washed with PBS and cultured in a serum-free DMEM medium including 10 ng/mL T-PDGFa or PDGFa for two days.” left out, “9).” for “5).”

[4] = tested on: human umbilical vein endothelial cells; assay: Endothelial cell proliferation, Cell Counter Kit-8; format: cell-based
Procedure: Specifically, human umbilical vein endothelial cells were inoculated onto a 96-well plate and cultured for 24 hours to obtain cultures at a density of 5,000 cells per well. The cultures were washed with PBS and cultured in a serum-free M199 medium for 16 hours. […] The cultures were obtained therefrom and a difference between proliferated amounts of cells was quantitively analyzed using the Cell Counter Kit-8 (Dojindo).
Specifically, human umbilical vein endothelial cells were inoculated onto a 96-well plate and cultured for 24 hours to obtain cultures at a density of 5,000 cells per well. The cultures were washed with PBS and cultured in a serum-free M199 medium for 16 hours. The cells were washed with PBS again and cultured in a serum-free M199 medium supplemented with 100 ng/mL T-Tβ4 or Tβ4 for one day. The cultures were obtained therefrom and a difference between proliferated amounts of cells was quantitively analyzed using the Cell Counter Kit-8 (Dojindo). Here, human umbilical vein endothelial cells cultured in a serum-free M199 medium without T-Tβ4 or Tβ4 were used as a control (Table 22).

| Molecule | Production (%) (keratinocyte growth) [1] | Remaining amount (%) ([2]; relative to KGF) | Production (%) of hyaluronic acid (HA) ([3]; 10 ng/mL T-VEGF or VEGF, control = 100) | hyaluronic acid producing effect compared with the unfused protein ([3]; 10 ng/mL) | Proliferation (%) ([4]; 100 ng/mL T-VEGF or VEGF, serum-free M199, one day, control = 100) | cell proliferation effect compared with the unfused protein ([4]; human umbilical vein endothelial cells, 100 ng/mL) | Remaining amount (%) ([2]; relative to VEGF) | skin retentivity higher than the unfused protein [2] | effect in keratinocyte growth test compared with the unfused protein ([1]; skin keratinocytes, 100 ng/mL) |
| --- | --- | --- | --- | --- | --- | --- | --- | --- | --- |
| KGF: keratinocyte growth factor having an amino acid sequence of SEQ ID NO: 44 (protein, Human KGF) CNDMTPEQMATNVNCSSPERHTRSYDYMEGGDIRVRRLFCRTQWYLRIDKRGKVKGTQEMKNNYNIMEIRTVAVGIVAIKGVESEFYLAMNKEGKLYAKKECNEDCNFKELILENHYNTYASAKWTHNGGEMFVALNQKGIPVRGKKTKKEQKTAHFLPMAIT | 620 ± 25% | 100 ± 17% |  |  |  |  |  |  |  |
| T-VEGF: SEQ ID NO: 1 peptide C-terminal linked to N-terminal of VEGF via GG linker (protein, Synthetic Fusion protein of T-VEGF) NGSLNTHLAPILGGAPMAEGGGQNHHEVVKFMDVYQRSYCHPIETLVDIFQEYPDEIEYIFKPSCVPLMRCGGCCNDEGLECVPTEESNITMQIMRIKPHQGQHIGEMSFLQHNKCECRPKKDRARQENPCGPCSERRKHLFVQDPQTCKCSCKNTDSRCKARQLELNERTCRCDKPRR |  |  | 230 ± 18% | same level | 185 ± 15% | same level | 9,800 ± 790% | about 100 times |  |
| T-KGF: SEQ ID NO: 1 peptide C-terminal linked to N-terminal of KGF via GG linker (protein, Synthetic Fusion protein of T-KGF) NGSLNTHLAPILGGCNDMTPEQMATNVNCSSPERHTRSYDYMEGGDIRVRRLFCRTQWYLRIDKRGKVKGTQEMKNNYNIMEIRTVAVGIVAIKGVESEFYLAMNKEGKLYAKKECNEDCNFKELILENHYNTYASAKWTHNGGEMFVALNQKGIPVRGKKTKKEQKTAHFLPMAIT | 590 ± 27% | 9,700 ± 850% |  |  |  |  |  | about 100 times | same level |
